Values of other authors, collected in publication PMC3439503.

Biological target: dystrophin N-ABD N-ABD (Homo sapiens) (UniProt P11532)

- Kd: 4 µM
Substance: dystrophin N-ABD N-ABD (from UniProt P11532)
